Legend:
Assay in all cases: method not stated for Table 5; Fc variant against Fcγ receptor
FcγRIIa-H131 (human) = FcγRIIa-H131 (human) (UniProt P12318)
FcγRIIb (human) = FcγRIIb (human) (UniProt P31994)
FcγRIIa-R131 (human) = FcγRIIa-R131 (human) (UniProt P12318)
Sequence of FcγRIIa-R131 (human) (P12318 34-218 H167R limits assumed): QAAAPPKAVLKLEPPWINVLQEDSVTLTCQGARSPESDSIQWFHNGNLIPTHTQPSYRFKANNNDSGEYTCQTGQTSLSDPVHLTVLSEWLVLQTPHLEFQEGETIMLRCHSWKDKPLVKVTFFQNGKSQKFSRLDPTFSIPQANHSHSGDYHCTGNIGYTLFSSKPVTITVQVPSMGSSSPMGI

Sequence of FcγRIIb (human) (P31994 43-217 limits assumed): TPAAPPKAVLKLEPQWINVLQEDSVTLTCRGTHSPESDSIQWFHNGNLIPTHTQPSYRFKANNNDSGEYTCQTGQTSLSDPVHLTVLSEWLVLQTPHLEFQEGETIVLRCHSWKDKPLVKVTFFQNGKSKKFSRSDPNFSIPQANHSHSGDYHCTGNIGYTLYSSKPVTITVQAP
Sequence of FcγRIIa-H131 (human) (P12318 34-218 limits assumed): as the sequence (P12318 34-218 H167R limits assumed) above, with R134H counted along it

| Kd (FcγRIIa-H131 (human)) [nM] | Kd (FcγRIIb (human)) [nM] | Kd (FcγRIIa-R131 (human)) [nM] | Substance |
| --- | --- | --- | --- |
| 530 | 3900 | 850 | IgG1f Fc sequence variant (Table 5) (antibody) |
| – | 950 | – | P238D Fc sequence variant (Table 5) (antibody) |
| 520 | 98 | 22 | SE Fc sequence variant (Table 5) (antibody) |
| – | – | 2 | SELF Fc sequence variant (Table 5) (antibody) |
